The target in one test is rFN12-14 (recombinant fibronectin type III repeats 12 to 14). Description: SPR; Biacore T200, C1 sensor chip; rFN12-14 immobilised (~870 RU); rF-, rFG-repeat or multiple repeats in HBS-EP injected at 40 μl/min; double referencing.
One may read the Kd as the free concentration of one partner at which half of the binding sites on the other are occupied at equilibrium, for simple one-to-one binding. “r2F-repeats (recombinant Embp fragment, aa 2569 to 2908) (domain or fragment)”: the Kd is 10 µM.

Regarding “r2FG-repeats (recombinant Embp fragment, aa 6777 to 7028) (domain or fragment)”, the dissociation constant (Kd) worked out at 0.5 µM.

For the substance “r4F-repeats (recombinant Embp fragment, aa 2569 to 3248) (domain or fragment)”, the Kd came to 20 µM.

Turning to “rF-repeat (recombinant first F-repeat of Embp, aa 2569 to 2738) (domain or fragment)”, the Kd was 29 µM.

As to “rFG-repeat (recombinant 19th FG-repeat of Embp, aa 6777 to 6902) (domain or fragment)”, the Kd worked out at 0.13 µM.

A further test deals with fibronectin (full-length human Fn, Sigma-Aldrich) (human) (UniProt P02751). Kind of test: SPR; Biacore T200, C1 sensor chip, 25°C, HBS-EP (10 mM HEPES pH 7.4, 150 mM NaCl, 3 mM EDTA, 0.005% Surfactant P20); Fn immobilised by amine coupling (~1,000 RU); rF- and rFG-repeats injected at 40 μl/min.
Substance “rF-repeat (recombinant first F-repeat of Embp, aa 2569 to 2738)” gave a dissociation constant Kd of 4 µM.

Consider “rFG-repeat (recombinant 19th FG-repeat of Embp, aa 6777 to 6902) (domain or fragment)”, for which the dissociation constant Kd worked out at 0.0016 µM.
